Results from patent US20150299319A1.

Target: KIR2DL1 on human NK cell clones (human) (UniProt P43626)
Assay: cell-based or functional assay

UniProt P43626, sequence (P43626 22-348): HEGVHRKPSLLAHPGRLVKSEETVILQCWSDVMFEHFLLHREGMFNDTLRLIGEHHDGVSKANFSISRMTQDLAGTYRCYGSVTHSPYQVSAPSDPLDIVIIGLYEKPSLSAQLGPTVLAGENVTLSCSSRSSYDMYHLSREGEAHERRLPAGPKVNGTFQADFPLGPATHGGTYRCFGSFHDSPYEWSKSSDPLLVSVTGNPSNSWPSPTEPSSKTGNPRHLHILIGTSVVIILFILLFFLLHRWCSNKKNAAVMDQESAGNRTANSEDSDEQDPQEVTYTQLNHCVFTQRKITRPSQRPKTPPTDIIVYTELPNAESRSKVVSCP

EB6 monoclonal antibody (IgG1, anti KIR2DL1)
lysis of autologous Cw4+ PHA blasts by NK cells with Campath: > 30%
